Experimental data from publication PMC8551276.

Legend:
[1] = biological target: HIV-1 HXB2 Env glycoprotein labelled with super folder GFP (GFPOPT) in the V4 loop of gp120, on pseudovirions (HIV-1 group M subtype B, isolate HXB2) (UniProt P04578)
[2] = biological target: HIV-1 HXB2 Env glycoprotein labelled with super folder GFP (GFPOPT) in the V4 loop of gp120, on pseudovirions (HIV-1 HXB2) (UniProt P04578)
[3] = biological target: HIV-1 HXB2 Env glycoprotein labelled with super folder GFP (GFPOPT) in the V4 loop of gp120, on pseudovirions (HIV-1 HXB2) (UniProt P04578); assay: FRET or BRET; single-virus Eapp traces, dwell times as CDF; virions on MT-4 T cells with 100 µg/mL PGT145
[4] = biological target: HIV-1 HXB2 Env glycoprotein labelled with super folder GFP (GFPOPT) in the V4 loop of gp120, on pseudovirions (HIV-1 HXB2) (UniProt P04578); assay: FRET or BRET
[5] = biological target: HIV-1 HXB2 Env glycoprotein labelled with super folder GFP (GFPOPT) in the V4 loop of gp120, on pseudovirions (HIV-1 HXB2) (UniProt P04578); assay: FRET or BRET; single-virus Eapp traces, dwell times as CDF; mature virions engaged with living MT-4 T cells; room temperature
[6] = biological target: HIV-1 HXB2 Env glycoprotein labelled with super folder GFP (GFPOPT) in the V4 loop of gp120, on pseudovirions (HIV-1 HXB2) (UniProt P04578); assay: FRET or BRET; single-virus Eapp traces (3 s per frame, 5 min), dwell times as cumulative distribution functions; mature virions in vitro, unliganded; room temperature

anti-HIV-1 gp120 monoclonal, b12 (antibody)
CDF average lifetime of the closed Env conformation, virions on MT-4 T cells with 100 µg/mL b12 (63 s without) [1]: 125 s | CDF average lifetime of the open Env conformation, virions on MT-4 T cells with 100 µg/mL b12 (168 s without) [1]: 61 s

Human soluble CD4 recombinant protein (sCD4_(D1-D4)) (domain or fragment)
CDF average lifetime of the closed Env conformation (0.12<Eapp<0.23) on mature virions with 10 µg/mL sCD4 (154 s without) [2]: 75 s | CDF average lifetime of the open Env conformation (Eapp<0.12) on mature virions with 10 µg/mL sCD4 (84 s without) [2]: 241 s

HIV-1 HXB2 Env glycoprotein labelled with super folder GFP (GFPOPT) in the V4 loop of gp120, on pseudovirions (from UniProt P04578) (complex)
CDF average lifetime of the high FRET regime (Env-Env interactions), on T cells with PGT145 [3]: 10 s | CDF average lifetime of the high FRET regime (Env-Env interactions), with sCD4 [4]: 16 s | CDF average lifetime of the high FRET regime (Env-Env interactions), virions on MT-4 T cells [5]: 53 s | CDF average lifetime of the high FRET regime (Env-Env interactions) [6]: 68 s
